Assay: yeast display, Sf9 membrane polyspecificity reagent, FACS + sequencing; frameworks hold sequencing errors
Method in brief: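 A nanobody's polyreactivity label depends on the gate it was sorted from. Yeast display cells were stained with 10% biotinylated, detergent-solubilized Sf9 membrane reagent for 1 hour at 4 °C, enriched on streptavidin microbeads and sorted by FACS. The low and high (top ~1%) gates were set on anti-HA fluorescence for expression and streptavidin fluorescence for reagent binding.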

Row | Sequence | polyreactivity (PSR sort gate)
1 | QVQLVESGGGLVQAGGSLRLSCAASGFTFNDYAMGWYRQAPGKARELVAAIEWYGGRTYYADSVKGRFTISRDHAKNTDYFHMTSLKPVATAVYYCAAVLYSRLDWYRLDYWGQGTQVTVSS | low polyreactivity
2 | QVQLVESGGGLVQAGGSLRLSCAASGFTFNDYAMGWYRQAPGKEWELVAAIDWSGGRTYYADSVKGRFTISRDNAKNTVYLQMNSLKAEDTAVYYFAAVLYSRLYWYRLDYWGQGTQVTVSS | low polyreactivity
3 | QVQLVESGGGLVQAGGSLRLSCAASGFTFNKYAMGWYRQAPRKERELVAAISSSGGSTRYADSVKGRFTISRDNAKNTVYLQMISLKPEDTAVYYCAVYVTRDSGWWLYDYWGQGTQVTVSS | high polyreactivity
4 | QVQLVESGGGLVQAGGSLRLSCAASGFTFNRYAMGWYRQAPGKERELVAAISWSGTSTYYADSVKGRFTISRDNAKNTVYLQMNSLKPEDTAVYYCAARVKGQWNTYDYWGQGTQVTVSS | high polyreactivity
5 | QVQLVESGGGLVQAGGSLRLSCAASGFTFNSYAMGWYRQAPGKERELVAAISSSGGRTYYADSVKGRFTISRDNAKNTVYLQMNSLKPEETAVYYCNAVLVSYYSVGYDYWGQGTQVTVSS | high polyreactivity
6 | QVQLVESGGGLVQAGGSLRLSCAASGFTFNYAMGWYRQAPGKERELVAAISSAGTTYYADSVKGRFTISRDNAKNTVYLQMNSLKPEDTAVYYCAALARPKQDRYRYYYWGQGTQVTVSS | high polyreactivity
7 | QVQLVESGGGLVQAGGSLRLSCAASGFTFNYYAMGWYRQAPGKERELVAAITWRSGRTSYADSVKGRFTISRDNAKNTVYLQMNSLKPEDTAVYYCAKYTIYYGLTRYGYWGQGTQVTVSS | high polyreactivity
8 | QVQLVESGGGLVQAGGSLRLSCAASGFTFPDYAMGWYRQAPGKERELVAAITSSGGSTYYADSVKGRFTISRDNAKNTVYLQMNSLKPEDTAVYYCNAYISDDRYWSPAIEEDYWGQGTQVTVSS | high polyreactivity
9 | QVQLVESGGGLVQAGGSLRLSCAASGFTFPDYAMGWYRQAPGKERELVAGISSTGDSTYYADSGKGRYTISRDNAKNTGYLQRNSLKPEETAVYYCNAAQERPSIILFSKYDYWGQGTQETVSS | low polyreactivity
10 | QVQLVESGGGLVQAGGSLRLSCAASGFTFPEYTMGWYRQAPGKERELVAAISWSGGSTYYADSVKGRFTISRDNAKNSVYLQMNSLKPEDTAVYYCNWKRGYGYWGQGTQVTVSS | high polyreactivity
11 | QVQLVESGGGLVQAGGSLRLSCAASGFTFPFYTMGWYRQAPGKERELVAAITRSGASTFYADSVKGRFTISRDNAKNTVYLQMNSLKPEDTAVYYCAARRGYAPYEYWGQGTQVTVSS | high polyreactivity
12 | QVQLVESGGGLVQAGGSLRLSCAASGFTFPGYAMGWYRQAPGKERKLVAAITGSGGRTYYADSVKGRFTISRDNAKNTVYLQMNSLKPEDTAVYYCLARSYYNWYDYWGQGTQVTVSS | high polyreactivity
13 | QVQLVESGGGLVQAGGSLRLSCAASGFTFPGYTMGWSRQAPGKERELVAAISTSGGSTYYADSVKGRFTISRDNAKNTVYLQMNSLKPEDTAVYYCAAAKPRVISQNIIYDYWGQGTQVTVSS | high polyreactivity
14 | QVQLVESGGGLVQAGGSLRLSCAASGFTFPGYVMGWYRQAPGKERELVAAISRSGGRTYYADSVKGRFTISRDNAKNTVYLQMNSQKPDDTAVYYCNTPDPGRDSDYWGQGTQVTVSS | high polyreactivity
15 | QVQLVESGGGLVQAGGSLRLSCAASGFTFPPYAMGLYIQATGKETELVAAITVGGGRTYYADSVKARFTISRDNARNTVYLQMNWLKPVDTAVYYCDADSHASTYDYWGQGTQVTVSS | low polyreactivity
16 | QVQLVESGGGLVQAGGSLRLSCAASGFTFPPYGMGWYRQAPGKERELVASISIGGGTYYADSVKGRFTISRDNAQNTVYLQMNSLKPEDTPVYYCAADLGQWSYYEFDYWGQGTQVTVSS | low polyreactivity
17 | QVQLVESGGGLVQAGGSLRLSCAASGFTFPQYAMGWYIQAPGKERELVASITRRGGSTFYADSVKGRFTISRDNAKNTVYLQMNSLKPEDTAVYYSAAGDYSRSVSRYWYTDYDYWGQGTQVTVSS | high polyreactivity
18 | QVQLVESGGGLVQAGGSLRLSCAASGFTFPRYVMGWYRQAPGKEREFVAAITFSGGSTYYADSVKGRFTNSRDNAKNTVYLQMNSLKPEDTAVYYCAAGASLWRLGLKMGYWGQGTQVTVSS | low polyreactivity
19 | QVQLVESGGGLVQAGGSLRLSCAASGFTFPTYAMGWYRQAPGKERELVAAISTSGARTYYADSVKGRFTISRDNAKNTVYLQMNSLKPEDTAVYYCAVGSIYTIGFRKGYRFDYWGQGTQVTVSS | high polyreactivity
20 | QVQLVESGGGLVQAGGSLRLSCAASGFTFPVYAMGWYRQATGKVRELVAAISRRGGRTYYADSVKGRFTISRDNAKNTVSLQMNSLKPEDTAVYYCNKGETLYGSVPYDYWGQGTQVTVSS | high polyreactivity
21 | QVQLVESGGGLVQAGGSLRLSCAASGFTFPVYTMGWYSQAPGKERELVAAISTAGAGTYYADSVKGRFTISRDNAKNTVYLQMNSLKPEDTAVYYCAAYKRGRPEMDYWGQGTQVTVSS | high polyreactivity
22 | QVQLVESGGGLVQAGGSLRLSCAASGFTFPWYAMGWYRQAPGKERELVAAISIGTGRTYYADSVKGRFTISRDNAKNTVYLQMNSLKPEDTAVYYCAAEDQYYEDGYWGQGTQVTVSS | high polyreactivity

Row | Sequence | polyreactivity (PSR sort gate)
23 | QVQLVESGGGLVQAGGSLRLSCAASGFTFPWYAMGWYRQAPGKERELVAALTGSGGSTDYADSVKGRFTISRDNAKNTVYLQMNSLKPEDTAVYYCNAGKTIDYRDGVGYDHWGQGTQVTVSS | low polyreactivity
24 | QVQLVESGGGLVQAGGSLRLSCAASGFTFPWYAMGWYSQAPGKERELVAAITSGGGSTYYADSVKGRFTISRDYAKNTVYLQMNSLKPEDTAVYYCAAVPALKWYGYEYWGQGTQVTVSS | high polyreactivity
25 | QVQLVESGGGLVQAGGSLRLSCAASGFTFPYNAMGWYRQAPVTERELVAAMSRGGGRTYYADSVKGRFTISRDNAKNTVNLQMNSLKPEDTAVYYCAKSPGQDTPYPYGYWGQGTQETVSS | high polyreactivity
26 | QVQLVESGGGLVQAGGSLRLSCAASGFTFPYNGMGWYRQAPGKERELVASISWSGASTYYADSVKGRFTISRDNAKNTVYLQMNSLKPEDTAVYYCASDPGYYSWGSSQDDYWGQGTQVTVSS | low polyreactivity
27 | QVQLVESGGGLVQAGGSLRLSCAASGFTFPYYAMGWYRQAPGKERELVATIRSGGSTYYADSVKGRFTISRDNAKNTVYLQMNSLKPEDTAVYYCAKYQVLYSYDKYGYWGQGTQVTVSS | low polyreactivity
28 | QVQLVESGGGLVQAGGSLRLSCAASGFTFQGNVMGWYRQAPGKERELVAASTGGGGDTYSADSVKGRFTISRDNAKNTVYLQMNSLKPEDTAVYYCAAEVAPEWYWPWFFDYADGYWGQGTQVTLSS | high polyreactivity
29 | QVQLVESGGGLVQAGGSLRLSCAASGFTFQKNAMGWNRQAPGKERDLVARITRSDGSTYYADSVKGRFTISRDNAKNTVYLPMNSLKPEDTAVYYWAARYCRLGSSRGGYWGQCTQVTVSS | low polyreactivity
30 | QVQLVESGGGLVQAGGSLRLSCAASGFTFQRYTMGWYRQAPGKERELVAAISWSGGSTYYADSVKGRFTISRDNAKNSVYLQMNSLKPEDTAVYYCAAYRVIPYLSDYWGEGTQVTVSS | high polyreactivity
31 | QVQLVESGGGLVQAGGSLRLSCAASGFTFQSYAMGWYRQAPGKESELVAAISWSGGSTYYADSVKGRFTISRDNAKNTVYLEMNSLKPEDTAVYYCAADAPRSYRFGYWGQGTQVTVSS | high polyreactivity
32 | QVQLVESGGGLVQAGGSLRLSCAASGFTFQYNAMGWYRQAPGKERELVAAITWTGTSTYADSVKGRFTISRDNAKNTVYLQLNSLKPEDTAVYYCAARYYAPRWFSYDYWGQGTQVTVSS | low polyreactivity
33 | QVQLVESGGGLVQAGGSLRLSCAASGFTFQYYAMGWYRQAPGKERELVAAISWGGGSTYYADSVKGRFTISRDNAKNTVYLQMNSLKPEDTAVYYCNAYEYLSAGYDYWGQGTQVTVSS | low polyreactivity
34 | QVQLVESGGGLVQAGGSLRLSCAASGFTFQYYAMGWYRQAPGKERELVAAISWSGGSTYYADSVKGRFTISRDNAKNTVYLQMNSLKPEDTAVYYCAAAPYTYPLGFDYWGQGTQVTVSS | high polyreactivity
35 | QVQLVESGGGLVQAGGSLRLSCAASGFTFRAYAMGWYRQAPGKERELVAAISRSGTSTYYADSVKGRFTISRDNAKYTVYLQMNSLKPEDTAVYYCAARLGPYHYATKMYYWGQGTQVTVSS | high polyreactivity
36 | QVQLVESGGGLVQAGGSLRLSCAASGFTFRAYAMGWYRQAPGKERELVAAITYSGDRTYYADSVKGRFTISRDNAKNTVYLQMNSLKPEDTAVYYCAAYGAKVNRPGYYYWGQGTQVTVSS | high polyreactivity
37 | QVQLVESGGGLVQAGGSLRLSCAASGFTFRDYAMGWYRPAPGKERELVAAIDIGTTTYYADSVKGRFTISRDNAKNTVYLQMNSLKPEDSAVYYCNKGTNRSGGYDSWGQGTQVTVSS | low polyreactivity
38 | QVQLVESGGGLVQAGGSLRLSCAASGFTFRDYAMGWYRQAPGKERELVAVISDSGGRTYYADSVKGRFTISRDNAKNTVYLQMNSLKPEDTAVYYCAARGYRSGGGYNYWGQGTQVTVSS | high polyreactivity
39 | QVQLVESGGGLVQAGGSLRLSCAASGFTFRFYVMGWYRQAPGKERELVAAISSGGGSTYYADSVKGRFTISRDNAKNTVYLQMNSLKPEDTAVYYCNALKVSFLTITKYEYWGQGTQVTVSS | high polyreactivity
40 | QVQLVESGGGLVQAGGSLRLSCAASGFTFRGNAMGWYRQAPGKERELVAAITWNGGSTYYADSVKGRFTISRDNAKNTVYLQMNSLKPEDTAVYYCAAQYGKKRQPRFNYWGQGTQVTVSS | high polyreactivity
41 | QVQLVESGGGLVQAGGSLRLSCAASGFTFRGYAMGWYRQAPGIERELVATISRRAASTYYADTVKGRFTISRDNAKNTVYLLMNSLKPEDTAVYYCAKVNRYDDDRDGFGYWGHGTQVTVSS | high polyreactivity
42 | QVQLVESGGGLVQAGGSLRLSCAASGFTFRGYAMGWYRQAPGKERELVASITYRGGSTYYADSVKGRFTISRDNAKNTVYLQMNSLKPEDTADYYCNAGFGGRRRQDAFIGTSIYDYWGQGTQVTVSS | low polyreactivity
43 | QVQLVESGGGLVQAGGSLRLSCAASGFTFRHNVMGWYRQAPGKERELVATITWSGGRTSYADSVKGRFTISRDNAKNTVYLQMKSLKPEDTAVYYCAARFFSYSQYAYNYWGQGTQVTVSS | high polyreactivity

Source: the nanobody polyreactivity screen of Harvey et al. (2022)
